Assay results: the supplement of paper PMC6757056
± gives the standard deviation of the averaged measurements.

B1: library; a variant is named by its letters at N, in order (parent)
chain: GCUGUCACCGGUGCUUGGUACGUUAUAUUCAGCCGGUCUGAUGAGUCUNNNNNNAGACGAAACAGC

Key:
(6R,S)-folinic acid [1] = variants of: B1; assay: normalized RNA/DNA level without ligand (relative to sTRSVctl = 100) (log10 (% of sTRSVctl)); HEK293T overexpressing SLC46A1; higher = less ribozyme self-cleavage, higher mRNA level; conditions: without (6R,S)-folinic acid; ligand present: no
How it was run: (§1)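 Library plasmids encoding reporter-linked ribozyme switches (mCherry, or eGFP for some folinic acid experiments) were transfected into HEK293T at 4 µg per 6-well well. Ligand, when used, was added 1 h before transfection. Total RNA was extracted with EDTA 72 h later, then reverse-transcribed, amplified, barcoded and sequenced. RNA level was RNA reads over DNA reads, divided by a spiked-in non-cleaving control (or the top 25 sequences), ×100, log10; only sequences with ≥100 DNA reads were kept.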

(6R,S)-folinic acid [2] = variants of: B1; assay: normalized RNA/DNA level with ligand (relative to sTRSVctl = 100) (log10 (% of sTRSVctl)); HEK293T overexpressing SLC46A1; ligand concentration (+) RNA-Seq: 6 mM; higher = less ribozyme self-cleavage, higher mRNA level; conditions: with (6R,S)-folinic acid; ligand present: yes
How it was run: as §1

Variant	normalized RNA/DNA level without ligand (log10) ((6R,S)-folinic acid [1])	normalized RNA/DNA level with ligand (log10) ((6R,S)-folinic acid [2])
GCGAGG	1.98 ± 0.023	2.05 ± 0.046
UCCCUC	2.07 ± 0.041	2.053 ± 0.0051
UCCCUU	2.03 ± 0.026	2.006 ± 0.0086
UCCCUG	1.919 ± 0.013	2.03 ± 0.039
UCCCUA	2.007 ± 0.0055	2 ± 0.024
ACCCCU	1.997 ± 0.0056	1.98 ± 0.073
ACCUUU	2.071 ± 0.0086	2.02 ± 0.021
ACCUUG	1.953 ± 0.0055	1.999 ± 0.011
ACCUUC	2.038 ± 0.014	2.04 ± 0.045
ACCUUA	2.045 ± 0.009	2.041 ± 0.017
GCGCCG	2.059 ± 0.0092	2.046 ± 0.0097
GCGCCC	2.07 ± 0.023	2.04 ± 0.036
GCGCCU	2.1 ± 0.023	2.09 ± 0.047
GCGCCA	2.08 ± 0.023	2.03 ± 0.03
UCGAUU	2.02 ± 0.03	2.04 ± 0.053
UCGAUC	2.06 ± 0.025	2.03 ± 0.026
UCCUUA	2.015 ± 0.013	2.05 ± 0.0049
UCCUUC	2.084 ± 0.002	2.05 ± 0.035
UCCUUU	2.07 ± 0.021	2.08 ± 0.032
GCCGCG	2.0553 ± 0.00018	2.092 ± 0.0094
GCCGCU	2.048 ± 0.0044	2.04 ± 0.044
GCCGCC	2.024 ± 0.0036	2.0189 ± 0.00031
GCCGCA	2.04 ± 0.027	2.044 ± 0.019
GCCGGG	2.086 ± 0.015	2.045 ± 0.003

Variant	normalized RNA/DNA level without ligand (log10) ((6R,S)-folinic acid [1])	normalized RNA/DNA level with ligand (log10) ((6R,S)-folinic acid [2])
GCCGGC	2.049 ± 0.0034	1.98 ± 0.051
GCCGGA	2.07 ± 0.036	2.02 ± 0.031
GCCGGU	2.067 ± 0.01	2.03 ± 0.034
UCGCGC	2.046 ± 0.014	2.03 ± 0.03
UCGCGU	2.033 ± 0.0037	2.04 ± 0.032
UCGCGG	2.067 ± 0.0045	2.084 ± 0.02
UCGCGA	2.0026 ± 0.0006	2.02 ± 0.068
CCGAAA	2.0005 ± 0.0006	2 ± 0.016
CCGAAU	2.002 ± 0.013	2.019 ± 0.018
CCGAAC	2.035 ± 0.0081	2.02 ± 0.049
UCGAGG	1.938 ± 0.017	2 ± 0.025
UCGAGA	2.006 ± 0.0024	2.07 ± 0.049
UCGAGC	2.022 ± 0.017	2.026 ± 0.011
ACCCUG	2.006 ± 0.013	2.032 ± 0.013
ACCCUC	2.03 ± 0.031	2.02 ± 0.032
ACCCUU	2.02 ± 0.027	2.03 ± 0.044
ACCCUA	2.018 ± 0.015	2.03 ± 0.022
ACGAUG	1.925 ± 0.016	2.03 ± 0.031
ACGAUU	2.0259 ± 0.00039	2.03 ± 0.026
ACGAUA	1.971 ± 0.0039	2.02 ± 0.036
CCCGGA	2.073 ± 0.016	2.03 ± 0.061
CCCGGC	2.08 ± 0.037	2.02 ± 0.065
CCCGGG	2.019 ± 0.0077	1.987 ± 0.0062
UCCGGU	2.032 ± 0.019	2.02 ± 0.052

Variant	normalized RNA/DNA level without ligand (log10) ((6R,S)-folinic acid [1])	normalized RNA/DNA level with ligand (log10) ((6R,S)-folinic acid [2])
UCCGGA	1.99 ± 0.038	2.02 ± 0.063
UCCGGC	2.08 ± 0.024	2.024 ± 0.018
CCGACC	2.063 ± 0.0099	2.04 ± 0.062
CCGACA	2.02 ± 0.029	2.04 ± 0.035
CCGACG	2.033 ± 0.013	2.0354 ± 0.0001
CCGACU	2.062 ± 0.0038	2.01 ± 0.027
ACCGGA	2.056 ± 0.0065	2.042 ± 0.013
ACCGGU	2.068 ± 0.0071	2.052 ± 0.015
ACCGGC	2.1359 ± 0.0014	2.085 ± 0.015
ACCGGG	2.068 ± 0.0057	2.06 ± 0.053
CCCUGU	2.1 ± 0.0073	2.102 ± 0.016
CCCUGG	2.101 ± 0.017	2.02 ± 0.022
CCCUGA	2.088 ± 0.014	2.1 ± 0.051
CCCUGC	2.08 ± 0.025	2.08 ± 0.014
ACGCAC	2.024 ± 0.016	2.03 ± 0.027
ACGCAA	1.988 ± 0.011	2.01 ± 0.031
ACGCAU	1.987 ± 0.012	2.01 ± 0.014
ACGCAG	1.934 ± 0.018	2.01 ± 0.027
CCCGUA	2.062 ± 0.016	2.07 ± 0.055
CCCGUU	2.057 ± 0.011	2.04 ± 0.023
CCCGUG	2.018 ± 0.016	2.012 ± 0.014
CCCGUC	2.05 ± 0.056	2.03 ± 0.065
UCGACA	1.999 ± 0.0076	2.022 ± 0.0062
UCGACG	1.867 ± 0.017	1.9974 ± 0.0011

Variant	normalized RNA/DNA level without ligand (log10) ((6R,S)-folinic acid [1])	normalized RNA/DNA level with ligand (log10) ((6R,S)-folinic acid [2])
UCGACC	2.052 ± 0.0052	2.04 ± 0.036
CCGCGA	2.06 ± 0.024	2.06 ± 0.034
CCGCGG	2.031 ± 0.0025	2.0168 ± 0.0019
CCGCGC	2.067 ± 0.012	2.05 ± 0.068
CCGCGU	2.05 ± 0.026	2.054 ± 0.015
UCCGAU	1.96 ± 0.026	2 ± 0.038
UCCGAC	2.029 ± 0.013	2.031 ± 0.0089
UCCGAA	1.941 ± 0.015	1.978 ± 0.019
ACCGCC	2.045 ± 0.02	2.05 ± 0.041
ACCGCG	1.994 ± 0.015	2.05 ± 0.017
ACCGCU	2.07 ± 0.026	2.08 ± 0.028
ACCGCA	2.009 ± 0.018	2.01 ± 0.024
CCCUCC	2.07 ± 0.015	2.006 ± 0.014
CCCUCU	2.1 ± 0.026	2.09 ± 0.057
CCCUCG	2.04 ± 0.025	1.997 ± 0.014
GCCCCU	2.0548 ± 0.00021	2.024 ± 0.011
ACGCGC	1.997 ± 0.0046	2.01 ± 0.059
ACGCGG	1.965 ± 0.004	2.03 ± 0.066
ACGCGA	1.986 ± 0.011	2.042 ± 0.0061
GCCCUC	2.047 ± 0.015	2.03 ± 0.065
GCCCUA	2.034 ± 0.015	2.05 ± 0.032
GCCCUG	2.05 ± 0.023	2.04 ± 0.039
GCCCUU	2.021 ± 0.0059	2.01 ± 0.044
CCCCUU	2.06 ± 0.023	2.05 ± 0.034

Variant	normalized RNA/DNA level without ligand (log10) ((6R,S)-folinic acid [1])	normalized RNA/DNA level with ligand (log10) ((6R,S)-folinic acid [2])
CCCCUC	2.05 ± 0.023	1.99 ± 0.038
GCGAUA	1.999 ± 0.0087	2 ± 0.011
GCGAUU	2.032 ± 0.016	2.04 ± 0.048
GCGAUC	2.039 ± 0.014	2.003 ± 0.015
ACGACU	1.997 ± 0.0037	2.006 ± 0.017
GCCUCA	2.041 ± 0.02	2.05 ± 0.044
GCCUCG	2.034 ± 0.016	2.04 ± 0.046
GCCUCC	2.068 ± 0.0082	2.05 ± 0.033
GCCUCU	2.0468 ± 0.0011	2.07 ± 0.027
UCCCCU	2.06 ± 0.025	2.04 ± 0.049
ACCGAU	1.973 ± 0.0074	1.99 ± 0.044
ACCGAC	2.0415 ± 0.00053	2.03 ± 0.058
CCGCAU	2 ± 0.0024	2.017 ± 0.018
CCGCAG	1.97 ± 0.004	1.99 ± 0.066
CCGCAA	1.986 ± 0.018	2 ± 0.042
CCGCAC	1.997 ± 0.0034	1.99 ± 0.029
CCCUAU	2.0351 ± 0.0014	2.05 ± 0.038
CCCUAC	2.07 ± 0.025	2.085 ± 0.019
CCCUAG	2.018 ± 0.004	2.045 ± 0.0096
CCCUAA	2.0445 ± 0.00066	2.039 ± 0.015
